Assay results as given in the DeepSol protein solubility set.

Test: soluble on expression in E. coli; label from the status in PepcDB or PDB records

Sequence	soluble on expression in E. coli
MGSDKIHHHHHHMLGLIKKKANTLLGIDISSTSVKLLELSRSGGRYKVEAYAVEPLPPNAVVEKNIVELEGVGQALSRVLVKAKTNLKSAVVAVAGSAVITKTIEMEAGLSEDELENQLKIEADQYIPYPLEEVAIDFEVQGLSARNPERVDVLLAACRKENVEVREAALALAGLTAKVVDVEAYALERSYALLSSQLGADTDQLTVAVVDIGATMTTLSVLHNGRTIYTREQLFGGRQLTEEIQRRYGLSVEEAGLAKKQGGLPDDYDSEVLRPFKDAVVQQVSRSLQFFFAAGQFNDVDYIVLAGGTASIQDLDRLIQQKIGTPTLVANPFADMALNGKVNAGALASDAPALMIACGLALRSFD	not soluble
MSLATTTSTDNTGLLDVLAPAYKKDTGVDLKWVAVGTGNALKLGENCDVDVVFVHAPKVELEYVEKGFGIDRTPVMYNDFVIIGNPSFKQKFTGMSVAEAFKLIEKEQVKFVSRGDKSGTHSKEREVWKEALGKIPEKESWYIEAGQGMLATINIAEEQKGLTLTDRGTFIKYESNHKGKPPMVIVLEGDNTLKNFYSIMAVNPKRCEKADYKGAKQFIDWIVSEKMQAEIANFKLLDKQLFTPDAKTREGHHHHHH	soluble
MGSDKIHHHHHHMTEKVSRFPGVFPLIVIGVPGSVDKTHKKLAFAPNLNRWRDIDVEKYFKVFEVYLENDANLAALAEMMRNKHFGDRKNIVYILVREGIGGGIIIEGKLYKGSFNAAGEIGHMKMYDRGPCFCGRVGCWEANTSISHCVRQYEKKKPLPGNTMYEKFETLCRIYEEDPLAKEVLDEFTGILIDGIVNLVNILSPEIVIVGGEGVFLPESVFEVIVSETRRQVHPMDKEVSVEKGSLSNKEVVLEGTSILSSMMISERLV	not soluble
MGSDKIHHHHHHMKLADIYAHFQEDIFTIERELEEAVQARHDILRKASVHLLKAGGKRIRPVFVLLAGKFGTYDVNVLKHIAVPLELIHMASLVHDDVIDDADLRRGKKTIKSQWDNRIAMYTGDYMFAKAVQTATYFDDPNIHQIISNAINEMCLGEVEQIRDQYNPNQHLRIYFRRIKRKTALLIAVSCQLGALAAKADPAIVQKLYYFGYYVGMSFQITDDVLDFVGTEEQLGKPAGSDLLQGNVTLPALYALHHDMHAKRLIEQVLADRGNNSVHMEEVIAAIVSSGGIDYALSISDLYLKKAMRMLDHLPDDEPKQFLQEIANYIGRRKF	not soluble
MSLEQDKYLTVAAITKYIEKKFEVDPYMKQVFVRGEISNLKQPASGHLYFTVKDEFAMLRSVMFHKAVQKIGFVPEDGMNVLVTGRIGVFTKAGRYQFYAEHMEPDGVGALYIQLEQLKAQLEKEGLFAETHKKVLPSFPSKVAVVTSKTGAAVRDILTTIHRRMPSVEVIVYPTIVQGEKAAQKIVENIGKINQRNDIDVMIIGRGGGSLEELWAFNEEPVVRAVYDSDVPVISAVGHETDFALSDFSADVRAATPTAAAELAVPDYRDLEERLAERKYRLLAVTRQALERKERSLEQLKQHLILNGPKHQLEQQMERTDYFSERLNNAFSKQIFVKQTAFDRLNDRLHYYHPNKEIELQKEQMTLHLQALDKAMKQLLKDKQQSFFRQVDALEHLSPLSLLKRGFGVTYKENTLVKSVQELEVGDNIQVKMQGGHIDALITAKEEDISGNEGHHHHHH	soluble
MKSEKETIYDYAAELKLLSFKEELECTLSLAAEENWNHLQFLTELLGKESARRRECRRRSRIRSAGFPQMKYLHELVMEDMPKEAQVILPELETLDFIRQGRNLVLYGNPGTGKTHIATALGIKACQQDFTVLFTSVPVLLTQIREAKSAKTLRTLQLRFEKYDLVICDEFGYVSCDKEGGELLFNHLSLRAGKKATIITTNLAFNRWNEIIKDKVLVAAMVDRLTHKAYLVNMTGLSYRLKETQKMRQDKLEHHHHHH	not soluble
MGKEALLNLYRIEYRPKDTTFTVFKPTHEIQKEKLNKVRWRVFLQTGLPTFRREDEFWCAGKVEKDTLYLTLSNGEIVELKRVGEEEFRGFQNERECQELFRDFLTKTKVKDKFISDFYKKFRDKITVQGKNRKIALIPEVNEKVLKSEEGYFLLHLDLKFRIQPFETLQTLLERNDFNPKRIRVKPIGIDFVGRVQDVFKAKEKGEEFFRLCMERSTHKSSKKAWEELLKNRELREKAFLVVLEKGYTYPATILKPVLTYENLEDEERNEVADIVRMEPGKRLNLIRYILRRYVKALRDYGWYISPEEERAKGKLNFKDTVLDAKGKNTKVITNLRKFLELCRPFVKKDVLSVEIISVSVYKKLEWRKEEFLKELINFLKNKGIKLKIKGKSLILAQTREEAKEKLIPVINKIKDVDLVIVFLEEYPKVDPYKSFLLYDFVKRELLKKMIPSQVILNRTLKNENLKFVLLNVAEQVLAKTGNIPYKLKEIEGKVDAFVGIDISRITRDGKTVNAVAFTKIFNSKGELVRYYLTSYPAFGEKLTEKAIGDVFSLLEKLGFKKGSKIVVHRDGRLYRDEVAAFKKYGELYGYSLELLEIIKRNNPRFFSNEKFIKGYFYKLSEDSVILATYNQVYEGTHQPIKVRKVYGELPVEVLCSQILSLTLMNYSSFQPIKLPATVHYSDKITKLMLRGIEPIKKEGDIMYWL	soluble
KDADHIHHLIDQSLIAKGFQEILTNSLTKGAYNELLSKQEDAVPILNKLSEELAFMRPSLAFTGLETVAYNINRRQKNLKLFEWGKVYFKRGTKYNEYNRLSVFITGNQHAESWNTPSKTVDFFDMKAVVVQILEKLHIAVTQVQEIESNPLFSKGVIYKHAGKELVQFGYISQAALKATDVKQEVLFADFNADLLLELYSNKSKYKEIS	not soluble
MSLEAKKDMGRCLWELKDEIDHVDRYCHDLAAWDDLHAFIKAPNADFLKINLNADTILDNEVSFICIVDRSGQLLFAEDWDLHRKEKTVLTTLPDSLRSVASLPFSSESDKDDLSNMKRVGIYNSSRGPMMLSSRPIITSNQQGPVQGAVIIGRLLDQGSLDAMMVRVALNFRFIDMSGDELTAKEKKILGELAVEEISIVERENSDNLEVYSHLADIGGRYLIQAEIPKHILQREGHHHHHH	soluble
MGSDKIHHHHHHMKIERLDKYIWKIPKEGDMKVDAIIFTDAESVNDPQFREAMKQLMNVATLPGIVKYALAMPDIHWGYGFPIGGVAAFDVKEGIISPGGVGFDINCGVRLMKTDLTYEDVKDRMRSLVEAIYEFVPAGVGSTGDIVLGKKGLRKVLVEGAEWAVKSGYGLEEDLERIEDGGKIHPADPSYVSEEAFERGSDELGTLGAGNHFVEVQMVQEIYDEELAEFFGLEIGTITVMIHSGSRGFGHQVATDYIRLMRDNLKEHNKNLPDKQLINAPFEHPLGQAYYSAMNCAANYAFANREILGHLVRKAFWKVFGRDTRVDLIYDVAHNIAKVEEYEVDGKRRKLVVHRKGATRSLGPGSEKVPSIYREVGQPVIIPGDMGTASYLLVGTKKAEEKTFGSTAHGAGRVLGRSAALKKLDYREVLDELAEKNIVVMSKSKKTLVEEAPEVYKDVDRVVQIVHEIGISRKVARMIPLGVVKG	not soluble
MSLRFTTISKAYDNVTTDDTQYRILIVEDDRSQALFAQSVLQGAGIHAQIEMSASEVLKVIEDYRPDLILMDLNMPELDGISLTTLIRQQPNQLLLPIVFLSGDTDPEKQFEVLDSGADDFLTKPIQPRHLIAAVSNRMHRLRQQQQNAQQADTQINIQKTSITELQTRIHIVEQLEVALSSGAQGALFFIEVSSALNLRTRYGYTAFERLMNQVEYHLAQEAHPYSLARISDHSFLLLAIDLAATEHQALATHLREHLATLPLPIQDDELVHLRSAIGYAPLNQGFKNADDAVECTESATLEARQNNEGIYAYVPLRTPENTGHLALLDGQLELAYQPIVEVAGSDTAQYQVLLRLRKADGNLLSAGLVIPAAEAAGRIMELDQQVIEQALDILKLHQDTNQQLRLFVSQSVRTLIHEGFSDWIIKNLRERNVNGTGLVIDLRLQDAVIHAIPLKQLCKELLKHNVKFCLSQFESNSEATVLFSELPLNFVRLSQHFGDAHNHPERQKELPLLIEQAHEHNLHVIGQCIEDAQAATFMWMNGVDLIQGNLFQNVSKDLNFNFHDMVLEGHHHHHH	soluble
